Literature values in paper PMC12582428.
Read-outs that look alike come from different tables or passages of the source.

Experiments:
[1] = target: Neuropeptide Y (Homo sapiens) (UniProt P01303)
[2] = target: Neuropeptide Y (Homo sapiens) (UniProt P01303); remark: listed apart in the source

Chain of Neuropeptide Y receptor Y1 (P25929 whole entry): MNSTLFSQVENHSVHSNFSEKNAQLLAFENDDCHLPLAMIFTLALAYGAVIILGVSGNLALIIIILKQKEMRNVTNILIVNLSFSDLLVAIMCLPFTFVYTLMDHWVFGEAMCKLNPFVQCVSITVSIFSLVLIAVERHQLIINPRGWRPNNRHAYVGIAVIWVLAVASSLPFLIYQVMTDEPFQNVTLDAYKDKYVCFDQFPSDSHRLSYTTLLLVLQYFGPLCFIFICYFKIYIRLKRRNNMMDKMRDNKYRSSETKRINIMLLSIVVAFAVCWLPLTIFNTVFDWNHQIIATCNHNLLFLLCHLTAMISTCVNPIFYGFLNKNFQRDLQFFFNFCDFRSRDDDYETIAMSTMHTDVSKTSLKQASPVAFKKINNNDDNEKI
Chain of Neuropeptide Y receptor Y2 (P49146 whole entry): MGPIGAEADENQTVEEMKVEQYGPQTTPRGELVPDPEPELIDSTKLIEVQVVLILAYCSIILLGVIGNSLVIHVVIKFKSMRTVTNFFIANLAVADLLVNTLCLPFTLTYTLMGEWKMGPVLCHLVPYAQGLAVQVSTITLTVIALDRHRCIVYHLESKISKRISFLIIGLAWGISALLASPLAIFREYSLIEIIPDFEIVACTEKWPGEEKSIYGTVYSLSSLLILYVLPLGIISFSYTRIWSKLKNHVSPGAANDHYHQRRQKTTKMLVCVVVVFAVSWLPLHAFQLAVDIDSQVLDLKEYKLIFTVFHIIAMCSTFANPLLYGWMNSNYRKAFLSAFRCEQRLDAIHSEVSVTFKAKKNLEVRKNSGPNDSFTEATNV

For “Neuropeptide Y receptor Y1 (from UniProt P25929)”, the Kd [1] is given as 4 nM.

For “Neuropeptide Y receptor Y2 (from UniProt P49146)”, the Kd [2] is given as 0.12 nM.
